Source: patent US7951914B2, “Genetically modified cyclic-nucleotide controlled ion channels” (Forschungszentrum Julich GmbH, priority 2001, dated 2011)
Numbering of substitutions follows the chain as printed. Names and notes keep the numbering of the source.

Assays:
[1] = tested on: endogenous phosphodiesterase (PDE); experiment: Fluorescence-optical Ca2+ measurement: phosphodiesterase inhibition with T537M cAMP sensor; format: cell-based, human; details: IBMX 0-100 μm, then 5 μm forskolin, FIG. 5E
Text: (§1) The excitation wavelength was 485 nm. The emission wavelength was 520 nm.
The effect of a phosphodiesterase (PDE) inhibitor on the forskolin-induced change in intracellular Ca^2+ concentration is shown. Cells which stably express the T537M mutants of the α3-CNG channel were first treated with different concentrations of the PDE inhibitor IBMX and then stimulated with 5 μm forskolin. […] The IBMX concentration was 0 μm (filled circles), 10 μm (open circles), 50 μm (filled triangles) or 100 μm (open triangles).

Adenosine A2B receptor = target: T1, Adenosine A2B receptor (Rattus norvegicus, UniProt P29276); details: Peakman and Hill 1994, primary rat astrocytes; read-out: K1/2 value indicated in the literature; cited from earlier work
T1 construct: host or cells: primary rat astrocytes
T1 sequence (P29276 1-332): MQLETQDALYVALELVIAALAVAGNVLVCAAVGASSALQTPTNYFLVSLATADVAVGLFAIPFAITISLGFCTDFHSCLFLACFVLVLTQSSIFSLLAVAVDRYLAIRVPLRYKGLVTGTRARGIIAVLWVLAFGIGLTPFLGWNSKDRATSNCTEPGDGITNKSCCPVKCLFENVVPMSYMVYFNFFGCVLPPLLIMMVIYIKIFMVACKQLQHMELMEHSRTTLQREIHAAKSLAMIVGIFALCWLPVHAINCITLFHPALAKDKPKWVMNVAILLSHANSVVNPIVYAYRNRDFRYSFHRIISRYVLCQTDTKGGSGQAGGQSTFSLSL

[2] = target: T2, corticotropin-releasing factor (CRF) receptor (Rattus norvegicus, UniProt P35353); experiment: Fluorescence-optical Ca2+ measurement: CRF receptor with T537M cAMP sensor; format: cell-based; details: agonist CRF 100-1,000 pM, FIG. 5B
T2 construct: expressed in transfected cells; host or cells: HEK293 stably co-expressing pcCRFR1 and bovine α3 T537M
T2 sequence (P35353 24-415): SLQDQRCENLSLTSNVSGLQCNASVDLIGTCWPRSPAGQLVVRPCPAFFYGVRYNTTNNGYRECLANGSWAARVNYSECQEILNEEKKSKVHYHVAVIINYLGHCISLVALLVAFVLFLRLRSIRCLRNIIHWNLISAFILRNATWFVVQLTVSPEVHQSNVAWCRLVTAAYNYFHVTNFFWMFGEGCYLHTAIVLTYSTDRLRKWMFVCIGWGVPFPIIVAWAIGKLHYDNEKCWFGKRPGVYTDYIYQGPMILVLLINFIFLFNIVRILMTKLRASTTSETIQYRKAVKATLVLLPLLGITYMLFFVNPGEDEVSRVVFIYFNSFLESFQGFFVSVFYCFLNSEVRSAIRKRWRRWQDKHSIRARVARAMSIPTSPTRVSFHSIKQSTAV
Experimental: The CRF receptor was cloned by carrying out a PCR of primary strand cDNA of rat hypophyses, using the primers #843 (5′-[…]-3′) (SEQ ID NO 11) and #842 (5′-[…]-3′) (SEQ ID NO 12). A 100 μl PCR mixture comprised 10 ng of primary strand cDNA, 1×PCR buffer for Taq polymerase incl. 1.5 mM of MgCl2, 200 μm of dNTPs, 1 U of Taq polymerase and in each case 150 ng of the two primers. The PCR conditions were as follows. 2 minutes of denaturation at 94° C., followed by 44 cycles of in each case 45 s at 94° C., 45 s at 56° C., 75 s at 72° C. The 1271 bp fragment was cloned via BamHI and SacI in pBluescript SK^—into (pBCRFR1). […]
FIG. 5B depicts the fluorimetrically measured change in intracellular Ca^2+ concentration in cells which stably express both the corticotropin-releasing factor (CRF) receptor and the T537M mutant of the α3-CNG channel. The time course of fluorescence intensity after stimulation of the cells with the agonist CRF is shown. […]
Cells which stably express the corticotropin-releasing factor (CRF) receptor and the T537M mutants of the α3-CNG channel were treated with the helical antagonist 9-41 (Rivier J., Rivier C., and Vale W. W. (1984) Synthetic competitive antagonists of corticotropin-releasing factor: effect on ACTH secretion in the rat. Science, 224, 889-891), before being stimulated with CRF (1 nM). The time course of fluorescence intensity is shown. […]

[3] = target: Drosophila dopamine receptor (Drosophila melanogaster, UniProt P41596); details: dopamine 25-600 nM, FIG. 5A
Experimental: On the day after transfection, the cells were seeded into a multiwell plate with 96 wells. The cell density per well was 2×10^4 cells.
The fluorimetric measurements of intracellular Ca^2+ concentrations were carried out in multiwell plates with 96 wells (FIG. 5A-5G). The cells were loaded with the Ca^2+-sensitive fluorescent dye Fluo-4 one hour before the measurement. The loading solution contained 120 mM of NaCl, 3 mM of KCl, 50 mM of glucose, 10 mM of Hepes (pH 7.4), 3 mM of MgCl2 and 4 μm of Fluo4-AM (molecular probes). The measuring solution contained 120 mM of NaCl, 3 mM of KCl, 50 mM of glucose, 10 mM of Hepes (pH 7.4) and 3 mM of CaCl2. The time course of the change in fluorescence intensity after application of agonists, antagonists, enzyme activators or enzyme inhibitors was registered using a fluorescence reader (FLUOstar, BMG-Labtechnologies). The excitation wavelength was 485 nm. The emission wavelength was 520 nm.

α3-CNG channel = experiment: Fluorescence-optical Ca2+ measurement: cAMP sensor sensitivity of α3-CNG channel variants after adenosine stimulation; format: cell-based
Text: as §1
The extent of the change in intracellular Ca^2+ concentration (fluorescence signal) was plotted as a function of time. […] Cells which stably express the T537S mutant of the α3-CNG channel were also stimulated for comparison.

[4] = tested on: homooligomeric bovine α3 CNG channels; experiment: Patch clamp electrophysiology of inside-out patches: activation of heterologously expressed CNG channels by cAMP and cGMP; format: biochemical; details: for Hill coefficient n, cAMP / Hill coefficient n, cAMP, averaged / Hill coefficient n, cGMP / Hill coefficient n, cGMP, averaged: +100 mV; for Hill coefficient n, cAMP: fit of FIG. 1B / 3B; for Hill coefficient n, cAMP, averaged / Hill coefficient n, cGMP, averaged: normalized Hill equation; for Hill coefficient n, cAMP, averaged: averaged parameters (FIG. 1C / 3C); for Hill coefficient n, cGMP: fit of FIG. 2B / 4B; for Hill coefficient n, cGMP, averaged: averaged parameters (FIG. 2C / 4C); for relative selectivity: times more selective for cAMP: quotient K1/2 cGMP / K1/2 cAMP; for relative selectivity: times more selective for cGMP: quotient of K1/2 values
Text: For this purpose, the corresponding nucleic acids were cloned into the expression vector pcDNA3.1 (Invitrogen) (see Methods). The expression constructs were then used to transform the cells of the human embryonic kidney cell line 293 (HEK293 cells) and the corresponding proteins were functionally expressed therein either transiently or stably (see Methods). The results of the studies are depicted in FIGS. 1-4. FIGS. 1-4 B depict the dependence of the average current on the cAMP concentration and cGMP concentration, respectively, in each case in the form of a dose-response relationship. The results of these measurements were used to calculate the sensitivity of the CNG channels to cAMP and cGMP. […] EMBO J., 13, 5040-5050. For electrophysiological characterization, the cells were transferred to glass slides which had been coated with poly L-lysine, on the day after transfection. The electrophysiological studies were then carried out on the following day. […] The electrophysiological characterization of the genetically modified CNG channels was carried out using the patch clamp technique under voltage clamping conditions. […] inside-out patches were excised from cells which stably expressed genetically modified or wild-type CNG channels. The bath solution containing different concentrations of cyclic nucleotides was used to flow over the membrane patches. Starting from a holding voltage of 0 mV, sudden voltage changes were applied to different test voltages between -100 mV and +100 mV at the patch with a step width of 20 mV. The currents were registered and analyzed using standard methods.

[5] = maximum stimulation with 25 μm adenosine

Chain of Drosophila dopamine receptor (P41596 20-511): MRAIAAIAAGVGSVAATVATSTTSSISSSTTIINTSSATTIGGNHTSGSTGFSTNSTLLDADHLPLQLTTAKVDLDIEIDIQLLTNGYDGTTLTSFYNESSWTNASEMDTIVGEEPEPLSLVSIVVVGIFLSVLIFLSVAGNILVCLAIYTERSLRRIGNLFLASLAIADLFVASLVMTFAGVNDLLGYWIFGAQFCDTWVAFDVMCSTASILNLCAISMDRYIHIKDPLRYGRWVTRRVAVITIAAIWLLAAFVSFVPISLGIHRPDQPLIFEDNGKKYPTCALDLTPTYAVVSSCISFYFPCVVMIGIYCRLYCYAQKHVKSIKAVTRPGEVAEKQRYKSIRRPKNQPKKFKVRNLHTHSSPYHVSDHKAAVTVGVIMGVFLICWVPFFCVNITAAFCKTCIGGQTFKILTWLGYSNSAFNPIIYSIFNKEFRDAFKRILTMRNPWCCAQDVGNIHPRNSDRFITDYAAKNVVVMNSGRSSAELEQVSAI

With `CC(C)Cn1c(=O)n(C)c(=O)c2[nH]cnc21` [IBMX] the “extent of the forskolin-induced change in intracellular Ca2+ concentration” value [1] was “depend on the concentration of the PDE inhibitor”.

For `Nc1ncnc2c1ncn2[C@@H]1O[C@H](CO)[C@@H](O)[C@H]1O` [adenosine], the EC50 (Adenosine A2B receptor) is listed as 5 µM.

In the case of “CRF: corticotropin-releasing factor, agonist of the CRF receptor”, the “speed and extent of the change in Ca2+” value [2] is reported as “depend on the CRF concentration”.

For `NCCc1ccc(O)c(O)c1` [dopamine], the “speed and extent of the change in Ca2+ concentration” value [3] was “depend on the dopamine concentration”.

B1: T537M: bovine α3 CNG channel with methionine in place of threonine T537 (SEQ ID NO 4) (protein, UniProt Q03041 1-663, looked up, variant T537M)
Cyclic nucleotide-gated …: MTEKANGVKSSPANNHNHHAPPAIKASGKDDHRASSRPQSAAADDTSSELQQLAEMDAPQQRRGGFRRIARLVGVLREWAYRNFREEEPRPDSFLERFRGPELHTVTTQQGDGKGDKDGEGKGTKKKFELFVLDPAGDWYYRWLFLIALPVLYNWCLLVARACFSDLQKGYYIVWLVLDYVSDVVYIADLFIRLRTGFLEQGLLVKDTKKLRDNYIHTMQFKLDVASIIPTDLIYFAVGIHNPEVRFNRLLHFARMFEFFDRTETRTSYPNIFRISNLILYILIIIHWNACIYYAISKSIGFGVDTWVYPNITDPEYGYLSREYIYCLYWSTLTLTTIGETPPPVKDEEYLFVIFDFLIGVLIFATIVGNVGSMISNMNATRAEFQAKIDAVKHYMQFRKVSKEMEAKVIRWFDYLWTNKKSVDEREVLKNLPAKLRAEIAINVHLSTLKKVRIFQDCEAGLLVELVLKLRPQVFSPGDYICRKGDIGKEMYIIKEGKLAVVADDGVTQYALLSAGSCFGEISILNIKGSKMGNRRMANIRSLGYSDLFCLSKDDLMEAVTEYPDAKRVLEERGREILMKEGLLDENEVAASMEVDVQEKLEQLETNMDTLYTRFARLLAEYTGAQQKLKQRITVLETKMKQNNEDDSLSDGMNSPEPPAEKP
With B1 the “change in fluorescence signal (intracellular Ca2+)” value (shortened to “change in fluorescence signal”) (α3-CNG channel; stimulation with 3 μm adenosine (about half maximum)) was “distinct increase in the fluorescence signal”, the “Hill coefficient n, cAMP” value [4] was 2.4 and the “Hill coefficient n, cAMP, averaged” value [4] was 2.4. For the same molecule, the “Hill coefficient n, cGMP” value [4] was 2.0, the “Hill coefficient n, cGMP, averaged” value [4] was 1.9 and the “relative selectivity: times more selective for cAMP” value [4] was “about 6 times”. The “times less sensitive to cGMP in comparison with the T537S mutant” value ([4]; ratio of K1/2 values) was 21 times, the “times less sensitive to cGMP in comparison with the wild type” value ([4]; ratio of K1/2 values) was “about 9 times” and the “times more sensitive to cAMP in comparison with the T537S mutant” value ([4]; ratio of K1/2 values) was “about 5 times”. The “times more sensitive to cAMP in comparison with the wild type” value ([4]; ratio of K1/2 values) was “about 30 times”.

B2: Wild Type: wild-type α3 subunit of the bovine CNG channel (SEQ ID NO 2) (protein)
chain: B1 Cyclic nucleotide-gated … with M537T
modifications: Bovine
For B2, the “change in fluorescence signal” value (α3-CNG channel; [5]) was “no increase in the fluorescence signal”, the “Hill coefficient n, cAMP, averaged” value [4] was 2.0 and the “Hill coefficient n, cGMP, averaged” value [4] was 2.0. The “relative selectivity: times more selective for cGMP” value [4] was “about 50 times”.

B3: T537S: known bovine α3 CNG channel subunit in which threonine 537 is replaced with serine (protein, UniProt Q03041 1-663, looked up, variant T537S)
Cyclic nucleotide-gated …: B1 Cyclic nucleotide-gated … with M537S
For B3, the “change in fluorescence signal” value (α3-CNG channel; [5]) was “only a very low increase in the fluorescence signal” and the “relative selectivity: times more selective for cGMP” value [4] was “about 20 times”.

B4: T537V: bovine α3 CNG channel with valine in place of threonine T537 (SEQ ID NO 6) (protein)
chain: B1 Cyclic nucleotide-gated … with M537V
modifications: Bovine
For B4, the “Hill coefficient n, cAMP” value [4] was 2.2, the “Hill coefficient n, cAMP, averaged” value [4] was 1.5 and the “Hill coefficient n, cGMP” value [4] was 2.2. For the same molecule, the “Hill coefficient n, cGMP, averaged” value [4] was 2.1, the “relative selectivity: times more selective for cAMP” value [4] was “about 6 times” and the “times less sensitive to cAMP than the T537S mutant” value ([4]; ratio of K1/2 values) was “about 2.5 times”. For the same molecule, the “times less sensitive to cGMP in comparison with the T537S mutant” value ([4]; ratio of K1/2 values) was “about 350 times”, the “times less sensitive to cGMP in comparison with the wild type” value ([4]; ratio of K1/2 values) was “about 150 times” and the “times more sensitive to cAMP in comparison with the wild type” value ([4]; ratio of K1/2 values) was roughly 3 times.
